Test results reported in article PMC3272839.

Molecular target: LRP1 minireceptor of domain IV, mLRP4 (UniProt Q07954)
Experiment: flow cytometry on cells

UniProt Q07954, sequence (Q07954 20-4544): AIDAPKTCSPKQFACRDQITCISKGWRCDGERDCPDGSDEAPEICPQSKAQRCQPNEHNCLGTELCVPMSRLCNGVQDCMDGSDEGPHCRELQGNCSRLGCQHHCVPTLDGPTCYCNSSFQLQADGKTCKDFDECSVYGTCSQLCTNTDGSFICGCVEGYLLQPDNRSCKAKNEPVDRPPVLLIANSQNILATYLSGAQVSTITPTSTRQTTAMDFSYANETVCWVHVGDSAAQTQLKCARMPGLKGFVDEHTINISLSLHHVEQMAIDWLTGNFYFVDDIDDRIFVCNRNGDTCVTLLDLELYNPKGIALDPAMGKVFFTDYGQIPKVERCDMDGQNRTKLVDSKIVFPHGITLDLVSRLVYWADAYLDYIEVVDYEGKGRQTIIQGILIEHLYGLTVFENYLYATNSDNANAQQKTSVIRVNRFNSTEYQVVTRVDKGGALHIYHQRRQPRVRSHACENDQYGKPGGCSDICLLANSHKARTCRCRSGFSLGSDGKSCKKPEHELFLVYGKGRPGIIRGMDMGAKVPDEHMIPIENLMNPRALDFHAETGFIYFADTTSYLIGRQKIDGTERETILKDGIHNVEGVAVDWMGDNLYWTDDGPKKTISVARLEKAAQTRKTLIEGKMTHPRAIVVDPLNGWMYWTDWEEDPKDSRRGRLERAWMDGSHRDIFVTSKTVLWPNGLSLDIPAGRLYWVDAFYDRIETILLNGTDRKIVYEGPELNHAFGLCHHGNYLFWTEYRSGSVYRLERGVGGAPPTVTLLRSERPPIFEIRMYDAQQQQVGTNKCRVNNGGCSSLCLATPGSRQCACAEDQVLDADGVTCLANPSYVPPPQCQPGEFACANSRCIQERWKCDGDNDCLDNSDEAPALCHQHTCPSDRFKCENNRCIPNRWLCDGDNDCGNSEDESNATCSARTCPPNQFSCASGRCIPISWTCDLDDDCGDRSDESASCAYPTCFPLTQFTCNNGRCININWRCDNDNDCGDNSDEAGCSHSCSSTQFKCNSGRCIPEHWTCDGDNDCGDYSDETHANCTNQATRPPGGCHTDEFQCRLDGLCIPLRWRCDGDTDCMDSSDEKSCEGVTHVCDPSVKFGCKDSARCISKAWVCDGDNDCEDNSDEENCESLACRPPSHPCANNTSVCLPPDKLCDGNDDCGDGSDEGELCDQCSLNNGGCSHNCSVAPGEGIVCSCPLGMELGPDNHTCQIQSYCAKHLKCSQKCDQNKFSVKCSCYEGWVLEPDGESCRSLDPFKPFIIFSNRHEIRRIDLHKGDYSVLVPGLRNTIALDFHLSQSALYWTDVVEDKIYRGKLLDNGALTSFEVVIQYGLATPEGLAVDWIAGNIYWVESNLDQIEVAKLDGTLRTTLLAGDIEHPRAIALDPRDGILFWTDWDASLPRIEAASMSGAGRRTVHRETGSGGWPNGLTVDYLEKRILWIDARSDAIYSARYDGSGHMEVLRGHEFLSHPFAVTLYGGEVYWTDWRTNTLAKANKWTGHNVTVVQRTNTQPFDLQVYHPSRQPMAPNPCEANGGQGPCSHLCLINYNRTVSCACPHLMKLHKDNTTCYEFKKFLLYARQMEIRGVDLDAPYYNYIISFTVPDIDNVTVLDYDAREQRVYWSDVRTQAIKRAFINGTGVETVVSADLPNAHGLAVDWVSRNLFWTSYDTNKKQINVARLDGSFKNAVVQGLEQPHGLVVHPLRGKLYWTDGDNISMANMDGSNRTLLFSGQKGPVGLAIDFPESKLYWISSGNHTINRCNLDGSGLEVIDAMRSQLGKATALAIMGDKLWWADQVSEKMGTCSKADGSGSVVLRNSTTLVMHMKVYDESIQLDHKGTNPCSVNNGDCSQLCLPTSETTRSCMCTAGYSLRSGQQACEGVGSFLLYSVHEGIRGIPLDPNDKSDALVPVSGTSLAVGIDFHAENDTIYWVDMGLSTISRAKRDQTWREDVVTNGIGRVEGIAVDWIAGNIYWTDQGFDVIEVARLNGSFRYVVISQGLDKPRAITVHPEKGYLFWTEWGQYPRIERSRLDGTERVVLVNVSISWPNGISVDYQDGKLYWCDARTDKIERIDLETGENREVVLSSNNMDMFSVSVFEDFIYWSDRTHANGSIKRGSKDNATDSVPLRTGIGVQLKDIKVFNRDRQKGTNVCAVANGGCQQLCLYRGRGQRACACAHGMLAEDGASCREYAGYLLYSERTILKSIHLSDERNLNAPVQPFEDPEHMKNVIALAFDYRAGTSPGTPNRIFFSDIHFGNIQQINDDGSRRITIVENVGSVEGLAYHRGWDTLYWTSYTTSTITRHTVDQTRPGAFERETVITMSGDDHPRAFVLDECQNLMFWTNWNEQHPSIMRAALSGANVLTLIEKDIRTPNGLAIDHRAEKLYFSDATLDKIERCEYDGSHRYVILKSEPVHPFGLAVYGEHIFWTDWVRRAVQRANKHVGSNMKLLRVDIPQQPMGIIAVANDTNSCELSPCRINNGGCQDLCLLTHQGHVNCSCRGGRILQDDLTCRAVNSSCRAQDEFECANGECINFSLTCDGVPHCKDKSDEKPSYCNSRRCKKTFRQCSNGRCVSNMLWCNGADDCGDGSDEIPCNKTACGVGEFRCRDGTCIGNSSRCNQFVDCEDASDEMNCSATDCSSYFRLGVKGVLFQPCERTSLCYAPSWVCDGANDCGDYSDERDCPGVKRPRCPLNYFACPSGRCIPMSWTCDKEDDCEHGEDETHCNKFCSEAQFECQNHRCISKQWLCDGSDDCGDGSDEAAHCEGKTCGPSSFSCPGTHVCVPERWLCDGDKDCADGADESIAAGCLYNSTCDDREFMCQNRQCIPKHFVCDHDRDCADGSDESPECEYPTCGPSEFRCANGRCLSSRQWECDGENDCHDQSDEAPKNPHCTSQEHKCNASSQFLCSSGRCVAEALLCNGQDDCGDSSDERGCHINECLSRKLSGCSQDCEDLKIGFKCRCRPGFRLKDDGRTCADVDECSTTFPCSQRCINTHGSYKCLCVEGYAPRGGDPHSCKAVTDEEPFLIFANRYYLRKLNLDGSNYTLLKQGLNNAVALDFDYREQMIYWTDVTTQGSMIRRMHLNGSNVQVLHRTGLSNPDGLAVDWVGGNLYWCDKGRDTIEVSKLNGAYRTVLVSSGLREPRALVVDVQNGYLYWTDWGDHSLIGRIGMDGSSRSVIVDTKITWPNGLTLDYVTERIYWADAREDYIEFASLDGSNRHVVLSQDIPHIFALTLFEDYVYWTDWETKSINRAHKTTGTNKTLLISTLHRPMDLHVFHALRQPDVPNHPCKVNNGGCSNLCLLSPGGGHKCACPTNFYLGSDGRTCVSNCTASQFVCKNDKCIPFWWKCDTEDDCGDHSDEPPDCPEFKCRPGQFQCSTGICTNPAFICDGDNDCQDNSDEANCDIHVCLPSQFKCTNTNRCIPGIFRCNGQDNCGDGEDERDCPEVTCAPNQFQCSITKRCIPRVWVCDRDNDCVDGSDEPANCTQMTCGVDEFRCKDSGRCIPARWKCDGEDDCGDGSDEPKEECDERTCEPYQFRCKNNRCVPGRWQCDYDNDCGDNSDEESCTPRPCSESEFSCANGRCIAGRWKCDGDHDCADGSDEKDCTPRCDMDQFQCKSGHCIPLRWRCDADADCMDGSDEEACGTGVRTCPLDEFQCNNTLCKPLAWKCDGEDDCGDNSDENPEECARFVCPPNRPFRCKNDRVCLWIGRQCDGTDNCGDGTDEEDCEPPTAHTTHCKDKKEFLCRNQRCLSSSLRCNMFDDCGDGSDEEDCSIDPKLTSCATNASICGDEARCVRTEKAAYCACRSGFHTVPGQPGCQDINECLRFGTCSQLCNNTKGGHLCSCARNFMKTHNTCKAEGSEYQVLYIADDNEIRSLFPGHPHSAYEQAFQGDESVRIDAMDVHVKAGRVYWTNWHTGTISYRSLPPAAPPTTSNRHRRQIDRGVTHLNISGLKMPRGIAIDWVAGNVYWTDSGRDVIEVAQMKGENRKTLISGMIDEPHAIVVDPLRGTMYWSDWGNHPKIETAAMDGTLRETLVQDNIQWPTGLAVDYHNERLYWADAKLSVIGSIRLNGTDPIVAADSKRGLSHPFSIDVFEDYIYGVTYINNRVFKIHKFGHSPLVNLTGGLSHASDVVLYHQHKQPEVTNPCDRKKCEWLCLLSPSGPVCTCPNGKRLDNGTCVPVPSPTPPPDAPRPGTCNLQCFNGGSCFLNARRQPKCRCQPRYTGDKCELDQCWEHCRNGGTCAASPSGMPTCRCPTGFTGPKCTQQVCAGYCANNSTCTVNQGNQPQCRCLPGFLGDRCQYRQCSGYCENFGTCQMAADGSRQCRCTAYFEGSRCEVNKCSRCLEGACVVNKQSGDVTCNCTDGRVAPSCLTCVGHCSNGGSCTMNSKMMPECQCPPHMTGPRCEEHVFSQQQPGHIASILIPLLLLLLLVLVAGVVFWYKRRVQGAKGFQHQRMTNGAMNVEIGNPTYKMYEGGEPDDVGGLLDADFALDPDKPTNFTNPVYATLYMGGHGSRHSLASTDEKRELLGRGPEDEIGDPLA

fold RAP binding against N2a-pcDNA3 cells (fold of N2a-pcDNA3 cells): 2.2
Substance: Alexa488-labeled receptor-associated protein (RAP) (from UniProt P30533 35-357) (ligand)
